First the molecules themselves.
B1: Vang-like protein 1 (Homo sapiens), Q8TAA9 (parent)
chain: MDTESTYSGYSYYSSHSKKSHRQGERTRERHKSPRNKDGRGSEKSVTIQPPTGEPLLGNDSTRTEEVQDDNWGETTTAITGTSEHSISQEDIARISKDMEDSVGLDCKRYLGLTVASFLGLLVFLTPIAFILLPPILWRDELEPCGTICEGLFISMAFKLLILLIGTWALFFRKRRADMPRVFVFRALLLVLIFLFVVSYWLFYGVRILDSRDRNYQGIVQYAVSLVDALLFIHYLAIVLLELRQLQPMFTLQVVRSTDGESRFYSLGHLSIQRAALVVLENYYKDFTIYNPNLLTASKFRAAKHMAGLKVYNVDGPSNNATGQSRAMIAAAARRRDSSHNELYYEEAEHERRVKKRKARLVVAVEEAFIHIQRLQAEEQQKAPGEVMDPREAAQAIFPSMARALQKYLRITRQQNYHSMESILQHLAFCITNGMTPKAFLERYLSAGPTLQYDKDRWLSTQWRLVSDEAVTNGLRDGIVFVLKCLDFSLVVNVKKIPFIILSEEFIDPKSHKFVLRLQSETSV
partner: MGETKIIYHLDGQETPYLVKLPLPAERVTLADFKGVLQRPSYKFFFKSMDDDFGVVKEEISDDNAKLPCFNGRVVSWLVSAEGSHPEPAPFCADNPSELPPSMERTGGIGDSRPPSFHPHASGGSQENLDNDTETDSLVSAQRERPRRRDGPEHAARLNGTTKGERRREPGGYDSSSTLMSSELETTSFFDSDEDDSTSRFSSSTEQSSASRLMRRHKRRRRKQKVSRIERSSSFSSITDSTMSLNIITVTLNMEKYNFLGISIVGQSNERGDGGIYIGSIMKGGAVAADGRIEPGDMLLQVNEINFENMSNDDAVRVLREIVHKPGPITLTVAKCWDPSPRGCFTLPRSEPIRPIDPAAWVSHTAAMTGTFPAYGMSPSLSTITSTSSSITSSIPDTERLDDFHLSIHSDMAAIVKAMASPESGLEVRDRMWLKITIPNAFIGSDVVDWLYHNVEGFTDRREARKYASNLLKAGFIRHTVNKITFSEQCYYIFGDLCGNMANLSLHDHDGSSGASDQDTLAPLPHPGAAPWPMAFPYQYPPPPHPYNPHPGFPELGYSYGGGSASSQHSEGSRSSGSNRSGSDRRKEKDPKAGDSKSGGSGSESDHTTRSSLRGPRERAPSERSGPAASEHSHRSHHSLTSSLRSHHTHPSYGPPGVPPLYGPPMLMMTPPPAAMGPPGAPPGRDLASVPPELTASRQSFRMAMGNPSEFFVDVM
B2: Vang-like protein 1 (Homo sapiens), Q8TAA9 (parent)
chain: B1 chain
partner: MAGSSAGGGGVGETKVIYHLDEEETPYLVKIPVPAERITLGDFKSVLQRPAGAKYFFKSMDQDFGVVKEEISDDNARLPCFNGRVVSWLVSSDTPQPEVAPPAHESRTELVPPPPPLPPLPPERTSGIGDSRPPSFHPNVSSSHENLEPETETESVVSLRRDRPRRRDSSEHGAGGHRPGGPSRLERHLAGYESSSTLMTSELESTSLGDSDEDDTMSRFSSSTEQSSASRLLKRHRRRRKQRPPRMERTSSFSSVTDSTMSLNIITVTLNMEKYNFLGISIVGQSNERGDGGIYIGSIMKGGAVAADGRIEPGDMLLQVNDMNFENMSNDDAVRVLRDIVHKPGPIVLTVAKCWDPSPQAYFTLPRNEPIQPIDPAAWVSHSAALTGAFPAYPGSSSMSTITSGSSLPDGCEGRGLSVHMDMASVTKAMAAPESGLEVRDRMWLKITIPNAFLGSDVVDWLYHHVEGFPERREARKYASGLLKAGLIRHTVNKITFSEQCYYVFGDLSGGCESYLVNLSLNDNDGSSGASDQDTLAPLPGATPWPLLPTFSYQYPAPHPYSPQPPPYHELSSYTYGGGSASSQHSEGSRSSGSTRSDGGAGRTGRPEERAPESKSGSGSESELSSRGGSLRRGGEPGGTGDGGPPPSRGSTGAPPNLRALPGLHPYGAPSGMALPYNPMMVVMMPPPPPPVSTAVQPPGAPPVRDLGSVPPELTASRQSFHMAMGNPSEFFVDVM

Results on 6 variants are retold here after IntAct's records for PubMed 17409324.

Variants of B1 are the subject of the first assay. The note with it: with dvl3_mouse Dvl3, Q61062.
As for MDTESTYSGYSYYSSHSKKSHRQGERTRERHKSPRNKDGRGSEKSVTIQPPTGEPLLGNDSTRTEEVQDDNWGETTTAITGTSEHSISQEDIARISKDMEDSVGLDCKRYLGLTVASFLGLLVFLTPIAFILLPPILWRDELEPCGTICEGLFISMAFKLLILLIGTWALFFRKRRADMPRVFVFRALLLVLIFLFVVSYWLFYGVRILDSRDRNYQGIVQYAVSLVDALLFIHYLAIILLELRQLQPMFTLQVVRSTDGESRFYSLGHLSIQRAALVVLENYYKDFTIYNPNLLTASKFRAAKHMAGLKVYNVDGPSNNATGQSRAMIAAAARRRDSSHNELYYEEAEHERRVKKRKARLVVAVEEAFIHIQRLQAEEQQKAPGEVMDPREAAQAIFPSMARALQKYLRITRQQNYHSMESILQHLAFCITNGMTPKAFLERYLSAGPTLQYDKDRWLSTQWRLVSDEAVTNGLRDGIVFVLKCLDFSLVVNVKKIPFIILSEEFIDPKSHKFVLRLQSETSV [V239I], the “effect of a mutation on the interaction” value is recorded as “disrupting interaction strength”.

In the next assay the parent is B2. As to conditions: with dvl2_mouse Dvl2, Q60838.
Turning to MDTESTYSGYSYYSSHSKKSHRQGERTRERHKSPRNKDGRGSEKSVTIQPPTGEPLLGNDSTRTEEVQDDNWGETTTAITGTSEHSISQEDIARISKDMEDSVGLDCKRYLGLTVASFLGLLVFLTPIAFILLPPILWRDELEPCGTICEGLFISMAFKLLILLIGTWALFFRKRRADMPRVFVFRALLLVLIFLFVVSYWLFYGVRILDSRDRNYQGIVQYAVSLVDALLFIHYLAIVLLELRQLQPMFTLQVVRSTDGESRFYSLGHLSIQQAALVVLENYYKDFTIYNPNLLTASKFRAAKHMAGLKVYNVDGPSNNATGQSRAMIAAAARRRDSSHNELYYEEAEHERRVKKRKARLVVAVEEAFIHIQRLQAEEQQKAPGEVMDPREAAQAIFPSMARALQKYLRITRQQNYHSMESILQHLAFCITNGMTPKAFLERYLSAGPTLQYDKDRWLSTQWRLVSDEAVTNGLRDGIVFVLKCLDFSLVVNVKKIPFIILSEEFIDPKSHKFVLRLQSETSV [R274Q], the “effect of a mutation on the interaction” value is listed as “with no effect”.

For MDTESTYSGYSYYSSHSKKSHRQGERTRERHKSPRNKDGRGSEKSVTIQPPTGEPLLGNDSTRTEEVQDDNWGETTTAITGTSEHSISQEDIARISKDMEDSVGLDCKRYLGLTVASFLGLLVFLTPIAFILLPPILWRDELEPCGTICEGLFISMAFKLLILLIGTWALFFRKRRADMPRVFVFRALLLVLIFLFVVSYWLFYGVRILDSRDRNYQGIVQYAVSLVDALLFIHYLAIILLELRQLQPMFTLQVVRSTDGESRFYSLGHLSIQRAALVVLENYYKDFTIYNPNLLTASKFRAAKHMAGLKVYNVDGPSNNATGQSRAMIAAAARRRDSSHNELYYEEAEHERRVKKRKARLVVAVEEAFIHIQRLQAEEQQKAPGEVMDPREAAQAIFPSMARALQKYLRITRQQNYHSMESILQHLAFCITNGMTPKAFLERYLSAGPTLQYDKDRWLSTQWRLVSDEAVTNGLRDGIVFVLKCLDFSLVVNVKKIPFIILSEEFIDPKSHKFVLRLQSETSV [V239I], the “effect of a mutation on the interaction” value is reported as “disrupting interaction strength”.

MDTESTYSGYSYYSSHSKKSHRQGERTRERHKSPRNKDGRGSEKSVTIQPPTGEPLLGNDSTRTEEVQDDNWGETTTAITGTSEHSISQEDIARISKDMEDSVGLDCKRYLGLTVASFLGLLVFLTPIAFILLPPILWRDELEPCGTICEGLFISMAFKLLILLIGTWALFFRKRRADMPRVFVFRALLLVLIFLFVVSYWLFYGVRILDSRDRNYQGIVQYAVSLVDALLFIHYLAIVLLELRQLQPMFTLQVVRSTEGESRFYSLGHLSIQRAALVVLENYYKDFTIYNPNLLTASKFRAAKHMAGLKVYNVDGPSNNATGQSRAMIAAAARRRDSSHNELYYEEAEHERRVKKRKARLVVAVEEAFIHIQRLQAEEQQKAPGEVMDPREAAQAIFPSMARALQKYLRITRQQNYHSMESILQHLAFCITNGMTPKAFLERYLSAGPTLQYDKDRWLSTQWRLVSDEAVTNGLRDGIVFVLKCLDFSLVVNVKKIPFIILSEEFIDPKSHKFVLRLQSETSV [D259E]: the “effect of a mutation on the interaction” value is on record as “disrupting interaction strength”.

In the case of MDTESTYSGYSYYSSHSKKSHRQGERTRERHKSPRNKDGRGSEKSVTIQPPTGEPLLGNDSTRTEEVQDDNWGETTTAITGTSEHSISQEDIARISKDMEDSVGLDCKRYLGLTVASFLGLLVFLTPIAFILLPPILWRDELEPCGTICEGLFISMAFKLLILLIGTWALFFRKRRADMPRVFVFRALLLVLIFLFVVSYWLFYGVRILDSRDRNYQGIVQYAVSLVDALLFIHYLAIVLLELRQLQPMFTLQVVRSTDGESRFYSLGHLSIQRAALVVLENYYKDFTIYNPNLLTASKFRAAKHMAGLKVYNVDGPSNNATGQSRAMIAAAARRRDSSHNELYYEEAEHERRVKKRKARLVVAVEEAFIHIQRLQAEEQQKAPGEVMDPREAAQAIFPSMARALQKYLRITRQQNYHSMESILQHLAFCITNGMTPKAFLERYLSAGPTLQYDKDRWLSTQWRLVNDEAVTNGLRDGIVFVLKCLDFSLVVNVKKIPFIILSEEFIDPKSHKFVLRLQSETSV [S467N], the “effect of a mutation on the interaction” value is listed as “decreasing interaction strength”.

Regarding MDTESTYSGYSYYSSHSKKSHRQGERTRERHKSPRNKDGRGSEKSVTIQPPTGEPLLGNDSTRTEEVQDDNWGETTTAITGTSEHSISQEDIARISKDMEDSVGLDCKRYLGLTVASFLGLLVFLTPIAFILLPPILWRDELEPCGTICEGLFISMAFKLLILLIGTWALFFRKRRADMPRVFVFRALLLVLIFLFVVSYWLFYGVRILDSRDRNYQGIVQYAVSLVDALLFIHYLAIVLLELRQLQPMFTLQVVRSTDGESRFYSLGHLSIQRAALVVLENYYKDFTIYNPNLLTASKFRAAKHMAGLKVYNVDGPSNNATGQSRATIAAAARRRDSSHNELYYEEAEHERRVKKRKARLVVAVEEAFIHIQRLQAEEQQKAPGEVMDPREAAQAIFPSMARALQKYLRITRQQNYHSMESILQHLAFCITNGMTPKAFLERYLSAGPTLQYDKDRWLSTQWRLVSDEAVTNGLRDGIVFVLKCLDFSLVVNVKKIPFIILSEEFIDPKSHKFVLRLQSETSV [M328T], the “effect of a mutation on the interaction” value is listed as “with no effect”.
